Laboratory results taken from article PMC9700851, “Interaction kinetics between p115-RhoGEF and Gα13 are determined by unique molecular interactions affecting agonist sensitivity” (Communications Biology, 2022).
Residue numbers refer to the chain shown, from its start. Each block holds one molecule with its values, some of them ahead of it.

Columns and labels:
Test in all cases: FRET or BRET; single-cell FRET in intact HEK293T cells co-transfected with TPα receptor, Gβ1 and Gγ2; donor mTurquoise2 (or CFP) on the Gα subunit, acceptor YFP on the RhoGEF; F535/F480 emission ratio on superfusion with the agonist U-46619 and after its washout (AUC of decay over the 10 min washout); room temperature, buffer pH 7.3
[1] = biological target: Gα13-mTurq2 (mTurquoise2 between amino acids 127 and 128) (mouse) (UniProt P27601)
Gα13(135)R128A (mouse) = Gα13(135)R128A (mouse) (UniProt P27601)
[2] = biological target: Gα13(135) (mTurquoise2 between amino acids 135 and 136) (mouse) (UniProt P27601)
Gα13(135)R128A = biological target: T1, Gα13(135)R128A (mouse, UniProt P27601 1-377, R128A)
T1 construct: Gα13, mouse; also called Gα13-R128A; source: HEK293T, transfected, in intact cells
T1 sequence (looked up): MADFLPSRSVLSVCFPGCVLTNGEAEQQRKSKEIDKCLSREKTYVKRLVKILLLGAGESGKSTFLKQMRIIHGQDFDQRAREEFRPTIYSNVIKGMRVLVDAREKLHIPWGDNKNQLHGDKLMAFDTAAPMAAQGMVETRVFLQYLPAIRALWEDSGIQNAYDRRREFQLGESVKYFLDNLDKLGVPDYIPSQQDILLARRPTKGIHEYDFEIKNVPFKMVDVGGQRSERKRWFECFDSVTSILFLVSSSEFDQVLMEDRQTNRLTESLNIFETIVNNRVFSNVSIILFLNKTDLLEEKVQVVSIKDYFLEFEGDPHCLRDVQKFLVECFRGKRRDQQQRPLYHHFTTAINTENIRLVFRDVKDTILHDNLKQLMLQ

[3] = biological target: T2, Gα13-mTurq2 (mTurquoise2 between amino acids 127 and 128) (mouse, UniProt P27601 1-377); conditions: partners not purified
T2 construct: Gα13, mouse; co-expressed with human TPα receptor, human Gβ1 and bovine Gγ2; also called Gα13(127); mTurq2-Gα13; source: HEK293T, transfected, in intact cells; not shown: mTurquoise2, internal (after residue 127), kept
T2 sequence (looked up): T1 sequence (looked up) with A128R

[4] = biological target: T3, Gα13(135) (mTurquoise2 between amino acids 135 and 136) (mouse, UniProt P27601 1-377); conditions: partners not purified
T3 construct: Gα13, mouse; Gibson assembly; also called wt-Gα13; source: HEK293T, transfected, in intact cells
T3 sequence (looked up): T1 sequence (looked up) with A128R

Molecule: Chimera1 (p115-RhoGEF amino acids 1-232 and LARG amino acids 559-1544) (from UniProt Q61210 1-232; Q9NZN5 559-1544)
mean AUC of decay of the FRET signal after agonist washout (arbitrary unit) [1]: 270

Molecule: Chimera 3 (full length LARG with the RH domain of p115, amino acids 44-232, instead of LARG amino acids 370-558) (from UniProt Q9NZN5 1-369; Q61210 44-232; Q9NZN5 559-1544)
mean AUC of decay of the FRET signal after agonist washout (arbitrary unit) [1]: 404

Molecule: p115-Rshort (p115-RhoGEF amino acids 34-235) (from UniProt Q61210 34-235) (domain or fragment)
mean AUC of decay of the FRET signal after agonist washout (arbitrary unit) [1]: 444

B2: eYFP-human LARG (leukemia-associated RhoGEF) (natural protein, UniProt Q9NZN5 1-1544, looked up)
chain: MSGTQSTITDRFPLKKPIRHGSILNRESPTDKKQKVERIASHDFDPTDSSSKKTKSSSEESRSEIYGLVQRCVIIQKDDNGFGLTVSGDNPVFVQSVKEDGAAMRAGVQTGDRIIKVNGTLVTHSNHLEVVKLIKSGSYVALTVQGRPPGSPQIPLADSEVEPSVIGHMSPIMTSPHSPGASGNMERITSPVLMGEENNVVHNQKVEILRKMLQKEQERLQLLQEDYNRTPAQRLLKEIQEAKKHIPQLQEQLSKATGSAQDGAVVTPSRPLGDTLTVSEAETDPGDVLGRTDCSSGDASRPSSDNADSPKSGPKERIYLEENPEKSETIQDTDTQSLVGSPSTRIAPHIIGAEDDDFGTEHEQINGQCSCFQSIELLKSRPAHLAVFLHHVVSQFDPATLLCYLYSDLYKHTNSKETRRIFLEFHQFFLDRSAHLKVSVPDEMSADLEKRRPELIPEDLHRHYIQTMQERVHPEVQRHLEDFRQKRSMGLTLAESELTKLDAERDKDRLTLEKERTCAEQIVAKIEEVLMTAQAVEEDKSSTMQYVILMYMKHLGVKVKEPRNLEHKRGRIGFLPKIKQSMKKDKEGEEKGKRRGFPSILGPPRRPSRHDNSAIGRAMELQKARHPKHLSTPSSVSPEPQDSAKLRQSGLANEGTDAGYLPANSMSSVASGASFSQEGGKENDTGSKQVGETSAPGDTLDGTPRTLNTVFDFPPPPLDQVQEEECEVERVTEHGTPKPFRKFDSVAFGESQSEDEQFENDLETDPPNWQQLVSREVLLGLKPCEIKRQEVINELFYTERAHVRTLKVLDQVFYQRVSREGILSPSELRKIFSNLEDILQLHIGLNEQMKAVRKRNETSVIDQIGEDLLTWFSGPGEEKLKHAAATFCSNQPFALEMIKSRQKKDSRFQTFVQDAESNPLCRRLQLKDIIPTQMQRLTKYPLLLDNIAKYTEWPTEREKVKKAADHCRQILNYVNQAVKEAENKQRLEDYQRRLDTSSLKLSEYPNVEELRNLDLTKRKMIHEGPLVWKVNRDKTIDLYTLLLEDILVLLQKQDDRLVLRCHSKILASTADSKHTFSPVIKLSTVLVRQVATDNKALFVISMSDNGAQIYELVAQTVSEKTVWQDLICRMAASVKEQSTKPIPLPQSTPGEGDNDEEDPSKLKEEQHGISVTGLQSPDRDLGLESTLISSKPQSHSLSTSGKSEVRDLFVAERQFAKEQHTDGTLKEVGEDYQIAIPDSHLPVSEERWALDALRNLGLLKQLLVQQLGLTEKSVQEDWQHFPRYRTASQGPQTDSVIQNSENIKAYHSGEGHMPFRTGTGDIATCYSPRTSTESFAPRDSVGLAPQDSQASNILVMDHMIMTPEMPTMEPEGGLDDSGEHFFDAREAHSDENPSEGDGAVNKEEKDVNLRISGNYLILDGYDPVQESSTDEEVASSLTLQPMTGIPAVESTHQQQHSPQNTHSDGAISPFTPEFLVQQRWGAMEYSCFEIQSPSSCADSQSQIMEYIHKIEADLEHLKKVEESYTILCQRLAGSALTDKHSDKS
notes: LARG (leukemia-associated RhoGEF), human; also called YFP-LARG; wt-LARG; source: HEK293T, transfected, in intact cells; not shown: YFP, N-terminal, kept
mean AUC of decay of the FRET signal after agonist washout [3]: 448 arbitrary unit
mean AUC of decay of the FRET signal after agonist washout [4]: 462 arbitrary unit
mean AUC of decay of the FRET signal after agonist washout (Gα13(135)R128A; partners not purified): 495 arbitrary unit

Other lines, results leading:

mean AUC of decay of the FRET signal after agonist washout (arbitrary unit) [1]: 274
Molecule: Chimera 2 (full length p115 with the RH domain of LARG, amino acids 370-558, instead of p115 amino acids 44-232) (from UniProt Q61210 1-43; Q9NZN5 370-558; Q61210 233-912)

mean AUC of decay of the FRET signal after agonist washout (arbitrary unit) [1]: 331
mean AUC of decay of the FRET signal after agonist washout (arbitrary unit) (Gα13(135)R128A (mouse)): 417
mean AUC of decay of the FRET signal after agonist washout (arbitrary unit) [2]: 284
Molecule: eYFP-p115-RhoGEF (from UniProt Q61210 1-920) (natural protein)

mean AUC of decay of the FRET signal after agonist washout (arbitrary unit) (Gα13(135)R128A): 444
mean AUC of decay of the FRET signal after agonist washout (arbitrary unit) [1]: 468
mean AUC of decay of the FRET signal after agonist washout (arbitrary unit) [2]: 453
Molecule: p115-E32G (from UniProt Q61210 1-920) (natural protein)

mean AUC of decay of the FRET signal after agonist washout (arbitrary unit) [1]: 343
Molecule: p115-R (p115-RhoGEF amino acids 1-245) (from UniProt Q61210 1-245) (domain or fragment)

mean AUC of decay of the FRET signal after agonist washout [3]: 464 arbitrary unit
B1: LARG-PR (LARG amino acids 1-558) (domain or fragment, human, UniProt Q9NZN5 1-558, looked up)
chain: MSGTQSTITDRFPLKKPIRHGSILNRESPTDKKQKVERIASHDFDPTDSSSKKTKSSSEESRSEIYGLVQRCVIIQKDDNGFGLTVSGDNPVFVQSVKEDGAAMRAGVQTGDRIIKVNGTLVTHSNHLEVVKLIKSGSYVALTVQGRPPGSPQIPLADSEVEPSVIGHMSPIMTSPHSPGASGNMERITSPVLMGEENNVVHNQKVEILRKMLQKEQERLQLLQEDYNRTPAQRLLKEIQEAKKHIPQLQEQLSKATGSAQDGAVVTPSRPLGDTLTVSEAETDPGDVLGRTDCSSGDASRPSSDNADSPKSGPKERIYLEENPEKSETIQDTDTQSLVGSPSTRIAPHIIGAEDDDFGTEHEQINGQCSCFQSIELLKSRPAHLAVFLHHVVSQFDPATLLCYLYSDLYKHTNSKETRRIFLEFHQFFLDRSAHLKVSVPDEMSADLEKRRPELIPEDLHRHYIQTMQERVHPEVQRHLEDFRQKRSMGLTLAESELTKLDAERDKDRLTLEKERTCAEQIVAKIEEVLMTAQAVEEDKSSTMQYVILMYMKHLGVK
notes: LARG, human, with the PDZ and RH domains; source: HEK293T, transfected, in intact cells

mean AUC of decay of the FRET signal after agonist washout [3]: 380 arbitrary unit
B3: LARG-Rshort (LARG amino acids 360-561) (domain or fragment, human, UniProt Q9NZN5 360-561, looked up)
chain: TEHEQINGQCSCFQSIELLKSRPAHLAVFLHHVVSQFDPATLLCYLYSDLYKHTNSKETRRIFLEFHQFFLDRSAHLKVSVPDEMSADLEKRRPELIPEDLHRHYIQTMQERVHPEVQRHLEDFRQKRSMGLTLAESELTKLDAERDKDRLTLEKERTCAEQIVAKIEEVLMTAQAVEEDKSSTMQYVILMYMKHLGVKVKE
notes: LARG, human, RH domain without the region N-terminal to it; source: HEK293T, transfected, in intact cells
